The Kd is a measure of binding affinity in units of concentration.

Read-outs that look alike come from different tables or passages of the source.

Data on two molecules can be found in patent publication US11254722B2, “Recombinant proteins and uses thereof” (ACADEMIA SINICA, priority 2017, dated 2022).

For data set [1] the following is noted: estimated; reference 26; cited from earlier work.
Another data set deals with T1, IGF-1 (Homo sapiens, UniProt P05019).
T1 construct: purchased R&D Sciences or SinoBiologicals
T1 sequence (P05019 49-118 limits assumed): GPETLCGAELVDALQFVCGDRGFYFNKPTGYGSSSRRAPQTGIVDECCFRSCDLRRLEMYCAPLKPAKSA
Put plainly: Biacore binding to IGF-1. The settings on record: experiment 4-79. How it is done:
Biacore binding was performed at David Myszka's laboratory at the University of Utah or at the Genomic Research Center at Academia Sinica. Surfaces of binding protein chimera were made via chemical immobilization on a CM4 chip using standard amine coupling chemistry. […] Excess surface carboxyl activated sites on all four flow cells was blocked using the doubly positively charged species ethylenediamine. Binding experiments (but not immobilizations) in HBS-P (10 mM HEPES pH 7.4, 150 mM NaCl, 0.05% P20), The HBS-P was supplemented with BSA at 0.2 mg/mL, or HBS-P was supplemented with 500 mM NaCl (650 mM NaCl, final concentration). Analytes were also reconstituted in the corresponding buffer. All experiments were performed at 25° C. 1/150 dilutions of phosphoric acid were used to regenerate IGFBP3-Fc surfaces and a sequence of 3 M MgCl2 followed by 5 M GuCl was used to regenerate surfaces immobilized with growth factor. Dissociation constants reported below used immobilized binding protein unless noted. Differences between binding constants may be expected between growth factor immobilization and chimera immobilization.
Background: In SPR one partner is held on a chip, and binding of the other changes the refractive index at the surface.

For data set [2], the system named is hep3B cells. The data set can be described thus: hep3B proliferation assay. In kind it is cell-based, human. Particulars: for EC50: FIG. 11C, read-out: ECK for FBS-induced proliferation; for IC50: Table 10. The essentials:
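Cells seeded at 1,000 to 6,000 per well in DMEM/F12 with 0.2% BSA and 10 ug/ml transferrin. Inhibitors added 16-20 h after plating; IGF-1 or other growth factors at plating or 16-20 h later. After 3 to 4 days, growth read by Alamar blue fluorescence at 544/590 nm after 4 to 6 h.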

A further data set concerns HUH7. The data set can be described thus: HUH7 survival and growth with TKI. In kind it is cell-based, human. Particulars: FIG. 21. The method, then: (§1) MCF-7 cells (a breast cancer cell line) were maintained in MEM (GIBCO) plus insulin and NEAA and 10% FBS (Hyclone).
(§2) For the proliferation assay, cells except for HUVEC were seeded at a density of 1,000 to 6,000 in 96 wells in an assay buffer of DMEM/F12 plus 0.2% BSA and 10 ug/ml transferrin. Chemical inhibitors were added after 16-20 hours after plating; IGF-1 or other growth factors or test chimeras in assay buffer were added at the time of plating or 16-20 hours after plating. 5,000 HUVEC ells were plated in poly-L-lysine coated 96 wells in M199 with 1%/FBS and HEPES. After 3 to 4 days of culture, growth was determined by incubating cells with Alamar blue for 4 to 6 hours and then the fluorescence (RFU) at 544/590 nm was read. For long term proliferation assays, cells were plated in the growth media with 5% or 10% FBS at densities of 500 to 10,000 cells per cm^2 growth area and grown for 7 to 21 days. Inhibitors and effectors were added 1-4 days after plating. Cells were exposed to cisplatin or gemcitabine for two days. Medium was renewed twice weekly. At completion, cells were fixed and then stained with Giemsa.
(§3) The addition of chimera D3 to gefitinib reduced this number by about 100-fold.

Data set [3] concerns Hep3B cells. Put plainly: Hep3B subcutaneous tumors in NOD-Scid mice. The data set is classed as in vivo. How it is done: Hep3B cells were infected with GFP-luciferase lentivirus. The cells with highest GFP expression were selected by FACS sort, and the resulting population was expanded. Two million hep3B cells mixed with Matrigel were injected subcutaneously in NOD-Scid mice, and measurable signal was obtained after 7 days. Treatment began at 8 days after injection (day 0). Luciferase was measured as per the standard Xenogen protocol. IGFBP3.Fc D3 (i.e., the 3(del3)3 chimera) at 20 mg/kg was injected twice weekly; saline was injected in the control group. Tumor growth was measured twice weekly by measuring the luminescence. […]

Another data set deals with PC-9 cells. The data set can be described thus: PC-9 proliferation and clonal density assays. The data set is classed as cell-based, human. How it is done:
as §1, §2
Proliferation assays at clonal densities allows measurement of these DTPs. PC-9 cells are a human non-small cell lung cancer line with a EGFR deletion with high sensitivity to EGFR TKI's (24).

Data set [4] deals with PC-9 non-small cell lung cancer cells. The data set can be described thus: PC-9 subcutaneous tumors in NSG mice, daily erlotinib. The data set is classed as in vivo. The settings on record: chimera D3 plus erlotinib. The method, then:
(§4) 5×10exp6 PC-9 non-small cell lung cancer cells were injected subcutaneously in Nod scid gamma (NSG) mice. […] Erlotinib in 6% captisol was dosed orally daily at 25 mg/kg; IGFBP3Fc (3(del3)3) was dosed intraperitoneally at 25 mg/kg three times per week; control animals were administered vehicle. Dosing was started on day 11; erlotinib and erlotinib plus D3 was discontinued on day 19; D3 injections were discontinued on day 22.

The test system of data set [5] is A549 lung carcinoma cells. The data set can be described thus: A549 proliferation assay. In kind it is cell-based. How it is done: as §1, §2
Since the A549 cell line contains a KRAS mutation, it is expected that A549 cells be resistant to TKIs such as AZD9291 and erlotinib. MEK inhibitors such as trametinib were designed to target the RAS/MEK/ERK pathway. […]

The test system of data set [6] is H1975-T790M gefitinib-resistant. Put plainly: H1975 survival and growth with TKI. In kind it is cell-based, human. Particulars: FIG. 21. The method, then: as §1, §2, §3
Another data set deals with A431. Put plainly: A431 survival and growth with TKI. Particulars: FIG. 21. The data set is classed as cell-based, human. The method, then:
as §1, §2, §3

The test system of another data set is PC-9 tumors. The data set can be described thus: PC-9 subcutaneous tumors in mice, low dose erlotinib. The data set is classed as in vivo. The settings on record: erlotinib 25 mg/kg 3 times per week; FIG. 27. The method, then:
as §4
Subcutaneous PC-9 tumors were generated and measured as above. Chimera D3 was dosed as above; erlotinib was dosed at 25 mg/kg 3 times per week in order to examine the effect of the chimera D3 on the tumor growth with suboptimal erlotinib dosing. The treatment started on day 8 and ended on day 22.

A further data set relates to HT29 cells. Put plainly: HT29 proliferation assay. In kind it is cell-based, human. How it is done: as §1, §2
The combination of drug (erlotinib and vemurafenib in hep3b and HT29 cells, respectively) and chimera can be synergistic; so, in addition to enhancing the inhibition, the chimera addition may also lower drug concentration requirements and reduce side effects.

A further data set concerns PC-91R. The data set can be described thus: PC-91R gefitinib-resistant cell proliferation. The data set is classed as cell-based. The settings on record: FIG. 24A, FIG. 24B. How it is done: as §2
One mechanism of EGFR TKI resistance is the transition from an epithelial to mesenchymal phenotype (16). […] Consequently, a combination of chimera D3 and TKI may limit the resistance caused by epithelial to mesenchymal transition.

The mark [7] stands for this setting: number of tumors, increase in the tumor size.
[8] abbreviates: number of tumors, no measurable tumor.
The mark [9] stands for this setting: number of tumors, partial regression means a 20% or greater decrease in the tumor size.

For the molecule “IGFBP3: insulin-like growth factor-binding protein-3, wild-type (SEQ ID NO: 1) [reference compound]”, the serum half-life in data set [1] was 25 min. Further, the Kd with IGF-1 came to 0.363 nM. The EC50 with hep3B cells [2] (hep3B) stood at 200 nM.

B1: chimera D3: IGFBP3 with IGFBP3 linker deletion 3-Fc, SEQ ID NO: 12 (protein)
chain: MSEVPVARVWLVLLLLTVQVGVTAGGASSAGLGPVVRCEPCDARALAQCAPPPAVCAELVREPGCGCCLTCALSEGQPCGIYTERCGSGLRCQPSPDEARPLQALLDGRGLCVNASAVSRPAPPAPGNASESEEDRSAGSVESPSVSSTHRVSDPKFHPKGHAKVDYESQSTDTQNFSSESKRETEYGPCRREMEDTLNHLKFLNVLSPRGVHIPNCDKKGFYKKKQCRPSKGRKRGFCWCVDKYGQPLPGYTTKGKEDVHCYSMQSKVECPPCPAPPVAGPSVFLFPPKPKDQLMISRTPEVTCVVVDVSHEDPEVKFNWYVDGVEVHNAKTKPREEQYNSTYRVVSVLTVLHQDWLNGKEYKCKVSNKGLPSSIEKTISKAKGQPREPQVYTLPPSREEMTKNQVSLTCLVKGFYPSDIAVEWESNGQPENNYKTTPPVLDSDGSFFLYSKLTVDKSRWQQGNVFSCSVMHEGLHNHYTQKSLSLSPGK
Turning to B1, the “cancer cell survival and growth on addition to TKI” value in the data set with HUH7 is reported as “further inhibited”; in the data set on PC-9 cells (PC-9, FIG. 21), “further inhibited”; in [6], “further inhibited”; in the data set with A431, “further inhibited”; in the data set on HT29 cells (HT29, FIG. 21), “further inhibited”; with hep3B cells [2] (hep3B, FIG. 21), “further inhibited”. The “hep3B tumor growth compared with control mice” value in the data set on Hep3B cells [3] (20 mg/kg twice weekly, luminescence, FIG. 25) is given as “grew more slowly”. For the same molecule, in the data set with Hep3B cells [3] (D3 alone, day 25), the “T/C (tumor volume treated/control) ratio” value is 63%. The same molecule yielded a tumor growth inhibition in the data set on Hep3B cells [3] (D3 alone, day 25, p value of 0.0025) of 37%. Besides, in the data set with Hep3B cells [3] (setting [7]), the “Progression, Day 12” value amounted to 5. Also, the “Progression, Day 22” value in the data set with Hep3B cells [3] (setting [7]) is given as 4. In the data set with Hep3B cells [3] (setting [8]), the “Complete regression, Day 12” value is given as 2. Moreover, in the data set with Hep3B cells [3] (setting [8]), the “Complete regression, Day 22” value is 3. Besides, the “Partial regression, Day 12” value in the data set on Hep3B cells [3] (setting [9]) is 1. Also, in the data set on Hep3B cells [3] (setting [9]), the “Partial regression, Day 22” value came to 1. Also, the “decrease of the IC50 of gefitinib” value in the data set on PC-9 cells (200 nM D3Fc, PC-9, four-day assay, FIG. 19A) is 70 fold. Moreover, the “bFGF and HGF rescue of osimertinib-treated PC-9 cells” value in the data set with PC-9 cells (FIG. 23) is “inhibited such rescue”. In the data set with PC-9 cells (PC-9, FIG. 19B), the “clonal density assay with gefitinib” value is “decreased the IC50 and reduced surviving cells”. For the same molecule, the “IGF1-induced cell survival under gefitinib” value with PC-9 cells (PC-9, FIG. 20) is “dramatically reduced”. Moreover, the “cell growth with bFGF under gefitinib” value with PC-9 cells (PC-9, FIG. 20) is given as “substantially reduced cell growth”. In addition, the “reduction of the number of PC-9 cells surviving gefitinib” value in the data set on PC-9 cells (addition of chimera D3 to gefitinib) is listed as “about 100 fold”. Moreover, the “tumor growth after erlotinib treatment was stopped on day 19, compared to the erlotinib group” value in data set [4] (FIG. 26) is on record as “delayed tumor growth”. Further, the “tumor volume of treated to control (T/C)” value in [4] (day 20) is reported as 32%. The “A549 growth on addition to cisplatin” value in [5] (FIG. 18B) is recorded as “further inhibited”. The “growth of A549 lung carcinoma cells” value in data set [5] (alone, or in combination with the TK (AZD9291, trametinib), FIG. 18A) is given as “reduced the growth”. In the data set with PC-9 tumors, the “tumor inhibition on addition of chimera D3 to erlotinib” value is “clearly improved the tumor inhibition”. Moreover, the “inhibition with vemurafenib in HT29 cells” value in the data set on HT29 cells (FIG. 17A isobologram, FIG. 17B) is on record as “synergistic inhibition”. Besides, the “sensitivity of gefitinib-resistant PC-91R cells to gefitinib” value with PC-91R is “restored the cancer cells' sensitivity to gefitinib”. For the same molecule, in the data set with hep3B cells [2] (0.01 uM doxorubicin plus chimera D3), the “hep3B proliferation on co-treatment with doxorubicin” value is “reduced proliferation even further”. Besides, in the data set on hep3B cells [2] (2 uM erlotinib, 2 uM sorafenib, or 0.15 uM afatinib, FIG. 16B), the “hep3B proliferation on co-treatment with erlotinib, sorafenib or afatinib” value is recorded as “further reduced cell proliferation”. Besides, the “proliferation of hep3B cells treated with chimera alone vs no inhibitor” value in the data set on hep3B cells [2] (FIG. 16B) is on record as “reduced significantly”. Besides, the IC50 in the data set on hep3B cells [2] (read-out: IC50, FBS-stimulated proliferation of hep3B cells) was determined as 105 nM; in the data set on hep3B cells [2] (read-out: IC50, HGF-stimulated proliferation of hep3B cells) it was 47 nM; with hep3B cells [2] (read-out: IC50, IGF1-stimulated proliferation of hep3B cells), 28 nM; in the data set on hep3B cells [2] (read-out: IC50, bFGF-stimulated proliferation of hep3B cells), 69 nM; in the data set with hep3B cells [2] (read-out: IC50, nrg-stimulated proliferation of hep3B cells), 78 nM. Moreover, the “bFGF, IGF1, bFGF/IGF1, HGF and HGF/IGF rescue of erlotinib-treated hep3b cells” value in the data set with hep3B cells [2] (clonal proliferation assay, FIG. 22B) is recorded as “inhibited”. Further, the “inhibition of hep3B cells treated with erlotinib” value in the data set on hep3B cells [2] (combination with erlotinib, FIG. 15, FIG. 16A) is “synergistically inhibited”. Also, the EC50 in the data set on hep3B cells [2] (hep3B) turned out to be 85 nM.
